B1: MKK6 D-site peptide / p38-alpha (MAPK14) L195A, full length (parent complex)
chain 1: SQSKGKKRNPGLKIPKEAFEQP
chain 2: MSQERPTFYRQELNKTVWEVPERYQNLSPVGSGAYGSVCAAFDTKTGHRVAVKKLSRPFQSIIHAKRTYRELRLLKHMKHENVIGLLDVFTPARSLEEFNDVYLVTHLMGADLNNIVKCQKLTDDHVQFLIYQILRGLKYIHSADIIHRDLKPSNLAVNEDCELKILDFGLARHTDDEMTGYVATRWYRAPEIMANWMHYNQTVDIWSVGCIMAELLTGRTLFPGTDHIDQLKLILRLVGTPGAELLKKISSESARNYIQSLAQMPKMNFANVFIGANPLAVDLLEKMLVLDSDKRITAAQALAHAYFAQYHDPDDEPVAEPYDQSFESRDFLIDEWKSLTYDEVISFVPPPLDQEEMES

This assay covers variants of B1.
In the case of chain 1 SQSKAKKRNPGLKIPKEAFEQP [chain 1 G5A], the screen value was 1.57 Z-score of the enrichment rate within one screen of 711 sequences.

As for chain 1 SQSKIKKRNPGLKIPKEAFEQP [chain 1 G5I], the screen value was 2.27 Z-score of the enrichment rate within one screen of 711 sequences.

chain 1 SQSAGKKRNPGLKIAKEAFEQP [chain 1 K4A, chain 1 P15A]: the screen value is 1.47 Z-score of the enrichment rate within one screen of 711 sequences. The value for chain 1 SQSKGKKRNPLLKIPKEAFEQP [chain 1 G11L] was 1 Z-score of the enrichment rate within one screen of 711 sequences; that for chain 1 SQSKGKKRNPTLKIPKEAFEQP [chain 1 G11T] was 1.22 Z-score of the enrichment rate within one screen of 711 sequences.

With chain 1 SQSKGKKRNPPLKIPKEAFEQP [chain 1 G11P], the screen value was -0.211 Z-score of the enrichment rate within one screen of 711 sequences. The value for chain 1 SQSKGKKRNPILKIPKEAFEQP [chain 1 G11I] was 0.58 Z-score of the enrichment rate within one screen of 711 sequences; that for chain 1 SQSKGKKRNPELKIPKEAFEQP [chain 1 G11E] was 0.286 Z-score of the enrichment rate within one screen of 711 sequences.

In the case of chain 1 SQSKGKKRNPWLKIPKEAFEQP [chain 1 G11W], the screen value was 0.816 Z-score of the enrichment rate within one screen of 711 sequences. The value for chain 1 SQSKGKKRNPCLKIPKEAFEQP [chain 1 G11C] was 1.37 Z-score of the enrichment rate within one screen of 711 sequences. With chain 1 SQSKGKARNPGLAIPKEAFEQP [chain 1 K7A, chain 1 K13A], the screen value was -0.71 Z-score of the enrichment rate within one screen of 711 sequences. The value for chain 1 SQSAAKKRNPGLKIPKEAFEQP [chain 1 K4A, chain 1 G5A] was 0.605 Z-score of the enrichment rate within one screen of 711 sequences; that for chain 1 SQSKGKKHNPGLKIPKEAFEQP [chain 1 R8H] was 0.072 Z-score of the enrichment rate within one screen of 711 sequences. Under chain 1 SQSKGKKQNPGLKIPKEAFEQP [chain 1 R8Q] stands -0.189 Z-score of the enrichment rate within one screen of 711 sequences; under chain 1 SQSKGKKKNPGLKIPKEAFEQP [chain 1 R8K], 1.16 Z-score of the enrichment rate within one screen of 711 sequences. The value for chain 1 SQSKGKKVNPGLKIPKEAFEQP [chain 1 R8V] was -0.0927 Z-score of the enrichment rate within one screen of 711 sequences; that for chain 1 SQSKGKKGNPGLKIPKEAFEQP [chain 1 R8G] was -0.084 Z-score of the enrichment rate within one screen of 711 sequences. Consider chain 1 SQSKGKKMNPGLKIPKEAFEQP [chain 1 R8M], for which the screen value is -0.224 Z-score of the enrichment rate within one screen of 711 sequences.

As for chain 1 SQSKGKTRNPGLKIPKEAFEQP [chain 1 K7T], the screen value was 0.476 Z-score of the enrichment rate within one screen of 711 sequences. Under chain 1 SQSKGKHRNPGLKIPKEAFEQP [chain 1 K7H] stands 0.776 Z-score of the enrichment rate within one screen of 711 sequences; under chain 1 SQSKGKPRNPGLKIPKEAFEQP [chain 1 K7P], 0.368 Z-score of the enrichment rate within one screen of 711 sequences. Under chain 1 SQSKGKNRNPGLKIPKEAFEQP [chain 1 K7N] stands 1.02 Z-score of the enrichment rate within one screen of 711 sequences. Under chain 1 SQSKGKIRNPGLKIPKEAFEQP [chain 1 K7I] stands 0.69 Z-score of the enrichment rate within one screen of 711 sequences; under chain 1 SQSKGKFRNPGLKIPKEAFEQP [chain 1 K7F], 1.5 Z-score of the enrichment rate within one screen of 711 sequences; under chain 1 SQSKGKCRNPGLKIPKEAFEQP [chain 1 K7C], 1.13 Z-score of the enrichment rate within one screen of 711 sequences. Consider chain 1 SQSKGKMRNPGLKIPKEAFEQP [chain 1 K7M], for which the screen value is 1.7 Z-score of the enrichment rate within one screen of 711 sequences. The value for chain 1 SQSKGKYRNPGLKIPKEAFEQP [chain 1 K7Y] was 0.574 Z-score of the enrichment rate within one screen of 711 sequences.

Take chain 1 SQSAGKKRAPGLKIPKEAFEQP [chain 1 K4A, chain 1 N9A]: the screen value is 0.386 Z-score of the enrichment rate within one screen of 711 sequences. As for chain 1 SQSKGKKANPGLAIPKEAFEQP [chain 1 R8A, chain 1 K13A], the screen value is -1.04 Z-score of the enrichment rate within one screen of 711 sequences. Under chain 1 SQSAGAKRNPGLKIPKEAFEQP [chain 1 K4A, chain 1 K6A] stands -0.342 Z-score of the enrichment rate within one screen of 711 sequences. The value for chain 1 SQAKAKKRNPGLKIPKEAFEQP [chain 1 S3A, chain 1 G5A] was 2.03 Z-score of the enrichment rate within one screen of 711 sequences; that for chain 1 SQSKAKKRNAGLKIPKEAFEQP [chain 1 G5A, chain 1 P10A] was 0.354 Z-score of the enrichment rate within one screen of 711 sequences.

chain 1 SQSKGKKRYPGLKIPKEAFEQP [chain 1 N9Y]: the screen value is 1.25 Z-score of the enrichment rate within one screen of 711 sequences. The value for chain 1 SQSKGKKRRPGLKIPKEAFEQP [chain 1 N9R] was 2.08 Z-score of the enrichment rate within one screen of 711 sequences.

For chain 1 SQSKGKKRWPGLKIPKEAFEQP [chain 1 N9W], the screen value was 1.99 Z-score of the enrichment rate within one screen of 711 sequences. The value for chain 1 SQSKGKKRMPGLKIPKEAFEQP [chain 1 N9M] was 1.1 Z-score of the enrichment rate within one screen of 711 sequences; that for chain 1 SQSKGKKRQPGLKIPKEAFEQP [chain 1 N9Q] was 0.874 Z-score of the enrichment rate within one screen of 711 sequences; that for chain 1 SQSKGKARNPGLKIAKEAFEQP [chain 1 K7A, chain 1 P15A] was 0.766 Z-score of the enrichment rate within one screen of 711 sequences.

As for chain 1 SQSAGKKRNAGLKIPKEAFEQP [chain 1 K4A, chain 1 P10A], the screen value was -0.0905 Z-score of the enrichment rate within one screen of 711 sequences. Under chain 1 SQSKGKKRAPGAKIPKEAFEQP [chain 1 N9A, chain 1 L12A] stands -0.96 Z-score of the enrichment rate within one screen of 711 sequences; under chain 1 SQSKGKKRNPAAKIPKEAFEQP [chain 1 G11A, chain 1 L12A], -0.887 Z-score of the enrichment rate within one screen of 711 sequences; under chain 1 SQSKGKKRNPGLKMPKEAFEQP [chain 1 I14M], 0.51 Z-score of the enrichment rate within one screen of 711 sequences.

With chain 1 SQSKGKKRNPGLKYPKEAFEQP [chain 1 I14Y], the screen value was -1.19 Z-score of the enrichment rate within one screen of 711 sequences. Under chain 1 SQSKGKKRNPGLKIDKEAFEQP [chain 1 P15D] stands 0.934 Z-score of the enrichment rate within one screen of 711 sequences; under chain 1 SQSKGKKRNPGLKIIKEAFEQP [chain 1 P15I], 1.61 Z-score of the enrichment rate within one screen of 711 sequences. Under chain 1 SQSKGKKRNPGLKIVKEAFEQP [chain 1 P15V] stands 3.1 Z-score of the enrichment rate within one screen of 711 sequences. Under chain 1 SQSKGKKRNPGLKINKEAFEQP [chain 1 P15N] stands 2.75 Z-score of the enrichment rate within one screen of 711 sequences; under chain 1 SQSKGKKRNPGLKIQKEAFEQP [chain 1 P15Q], 0.909 Z-score of the enrichment rate within one screen of 711 sequences.

Turning to chain 1 SQSKGKKRNPGLKILKEAFEQP [chain 1 P15L], the screen value was 1.3 Z-score of the enrichment rate within one screen of 711 sequences. The value for chain 1 SQSKGKKRNPGLKIHKEAFEQP [chain 1 P15H] was 1.18 Z-score of the enrichment rate within one screen of 711 sequences.

For the origin of these results see paper doi:10.1101/2021.08.20.457142.
